According to PMC6949223:

What was measured:
[1] = Transwell migration, MDA-MB-231 and BT-549 rescue lines; settings: glycan lost; control: SGK196-WT re-expressed in shSGK196 cells
[2] = Matrigel Transwell invasion, MDA-MB-231 and BT-549 rescue lines; settings: glycan lost; control: SGK196-WT re-expressed in shSGK196 cells
[3] = protein stability in MDA-MB-231 and BT-549 (Fig. S2C); settings: glycan lost; control: SGK196-WT
[4] = anti-HA immunofluorescence, MDA-MB-231 and BT-549; settings: glycan lost; control: SGK196-WT

B1: SGK196: SGK196-4NQ (protein)
parent chain: MEKQPQNSRRGLAPREVPPAVGLLLIMALMNTLLYLCLDHFFIAPRQSTVDPTHCPYGHFRIGQMKNCSPWLSCEELRTEVRQLKRVGEGAVKRVFLSEWKEHKVALSQLTSLEMKDDFLHGLQMLKSLQGTHVVTLLGYCEDDNTMLTEYHPLGSLSNLEETLNLSKYQNVNTWQHRLELAMDYVSIINYLHHSPVGTRVMCDSNDLPKTLSQYLLTSNFSILANDLDALPLVNHSSGMLVKCGHRELHGDFVAPEQLWPYGEDVPFHDDLMPSYDEKIDIWKIPDISSFLLGHIEGSDMVRFHLFDIHKACKSQTPSERPTAQDVLETYQKVLDTLRDAMMSQAREML
other: suppression of cell migration [1]: decreases
other: suppression of cell invasion [2]: decreases
degradation_or_half_life [3]: no change
localisation_or_trafficking [4]: no change
